Results published in publication PMC6907347.

Molecular target: Aβ_(1–40) fibrils (amyloid β peptide 1–40, fibrillar form) (UniProt P05067)
Experiment: SPR; BIAcore 3000, CM5 chip; Aβ 1–40 fibrils immobilised by amine coupling at 2000 RU; ApoE4 injected at 20 μL/min until saturation; degassed PBS pH 7.4, 25 °C

Sequence of Aβ_(1–40) fibrils (amyloid β peptide 1–40, fibrillar form) (P05067 672-711): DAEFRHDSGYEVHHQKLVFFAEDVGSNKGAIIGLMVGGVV

recombinant human ApoE4 (Apolipoprotein E, ε4 allele) (from UniProt P02649 19-317) (natural protein)
Kd: 5 nM
